{"source": "patent US9540428B2", "about": "“Extracellular matrix heparin-binding domains” (EPFL-TTO, priority 2012, dated 2017)", "molecules": {"B1": {"name": "TNC III1-5: recombinant tenascin C fibronectin type III repeats 1-5 (E622 to A1074) with transglutaminase substrate NQEQVSPL and 6×His tag, SEQ ID NO:1 (protein)", "chain": "METDTLLLWVLLLWVPGSTGDAAQPAIEGRNQEQVSPLGGSEVSPPKDLVVTEVTEETVNLAWDNEMRVTEYLVVYTPTHEGGLEMQFRVPGDQTSTIIQELEPGVEYFIRVFAILENKKSIPVSARVATYLPAPEGLKFKSIKETSVEVEWDPLDIAFETWEIIFRNMNKEDEGEITKSLRRPETSYRQTGLAPGQEYEISLHIVKNNTRGPGLKRVTTTRLDAPSQIEVKDVTDTTALITWFKPLAEIDGIELTYGIKDVPGDRTTIDLTEDENQYSIGNLKPDTEYEVSLISRRGDMSSNPAKETFTTGLDAPRNLRRVSQTDNSITLEWRNGKAAIDSYRIKYAPISGGDHAEVDVPKSQQATTKTTLTGLRPGTEYGIGVSAVKEDKESNPATINAATELDTPKDLQVSETAETSLTLLWKTPLAKFDRYRLNYSLPTGQWVGVQLPRNTTSYVLRGLEPGQEYNVLLTAEKGRHKSKPARVKASTEQAGGGSHHHHHH", "modifications": "Tenascin III signal sequence with polyhistidine tag"}, "B2": {"name": "Fg β15-66: heparin-binding domain of human fibrinogen β chain aa15-66 (SEQ ID NO:8); construct with TG substrate and His tag, SEQ ID NO:2 (protein)", "chain": "GSNQEQVSPLGHRPLDKKREEAPSLRPAPPPISGGGYRARPAKAAATQKKVERKAPDAGGCGHHHHHH", "modifications": "GS linker, transglutaminase substrate, the Fg beta15-66, with a Histidine tag"}}, "key": {"FGF-17": {"molecular_target": "T1, FGF-17 (Homo sapiens, UniProt O60258)", "T1 sequence (O60258 23-216)": "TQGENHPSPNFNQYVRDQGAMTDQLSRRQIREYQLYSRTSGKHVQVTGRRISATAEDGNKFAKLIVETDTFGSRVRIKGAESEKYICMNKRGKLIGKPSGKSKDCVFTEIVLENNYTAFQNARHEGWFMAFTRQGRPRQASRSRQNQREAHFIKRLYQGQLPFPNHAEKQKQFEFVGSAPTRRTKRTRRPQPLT", "assay": "ELISA binding to coated FGF-17", "settings": "50 nM cytokine coated", "procedure": "(§1) ELISA plates were coated with cytokines or BSA and further incubated with TNC III1-5 to analyze binding of TNC III1-5 to a wide variety of cytokines. […] Results are depicted in FIG. 3. Method: 50 nM of cytokine was coated for (1 hr, 37° C.). After blocking with 2% BSA (1 hr, RT). 100 nM TNC III1-5 was applied in PBST (0.05% tween, 0.1% bovine serum albumin (BSA)) (1 hr, RT). TNC III1-5 was detected with horseradish peroxidase (HRP)-anti-HIS in PBST (1 hr, RT) and developed with 3,3′,5,5′-tetramethylbenzidine (TMB), a soluble colorimetric HRP […]. Addition of sulfuric acid stop solution changes the color to yellow, enabling accurate measurement of the intensity at 450 nm using a spectrophotometer or plate reader. […] Heparin (4 μM) was added to TNC III1-5 to test the effect of blocking the heparin binding site of TNC III1-5, which has been defined as domain TNC III5 (Weber, Zimmermann, et al., 1995)."}, "factor XIIIa": {"molecular_target": "T2, factor XIIIa (Homo sapiens, UniProt P00488)", "T2 sequence (P00488 39-732 limits assumed)": "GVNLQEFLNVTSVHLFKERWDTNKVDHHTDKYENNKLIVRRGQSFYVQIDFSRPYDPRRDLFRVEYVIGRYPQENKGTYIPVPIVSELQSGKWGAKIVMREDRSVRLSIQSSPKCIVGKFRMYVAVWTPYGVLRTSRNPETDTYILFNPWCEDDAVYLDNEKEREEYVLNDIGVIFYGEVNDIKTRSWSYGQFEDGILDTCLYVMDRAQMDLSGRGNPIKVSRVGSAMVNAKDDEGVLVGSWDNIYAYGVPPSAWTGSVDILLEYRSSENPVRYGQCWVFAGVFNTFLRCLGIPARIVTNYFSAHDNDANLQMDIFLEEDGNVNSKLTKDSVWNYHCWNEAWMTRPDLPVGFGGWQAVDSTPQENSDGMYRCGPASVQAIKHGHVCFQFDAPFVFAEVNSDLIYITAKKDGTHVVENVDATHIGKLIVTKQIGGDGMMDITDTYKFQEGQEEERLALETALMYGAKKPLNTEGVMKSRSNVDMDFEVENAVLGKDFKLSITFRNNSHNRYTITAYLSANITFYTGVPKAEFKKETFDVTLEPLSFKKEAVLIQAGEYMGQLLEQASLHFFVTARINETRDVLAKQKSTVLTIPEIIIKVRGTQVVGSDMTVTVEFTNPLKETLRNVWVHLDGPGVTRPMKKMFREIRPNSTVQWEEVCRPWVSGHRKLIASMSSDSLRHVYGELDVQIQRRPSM", "assay": "Transglutaminase substrate activity (TAMRA, fibrinogen, PEG-lysine with factor XIIIa)", "assay_type": "biochemical", "settings": "with and without factor XIIIa", "procedure": "The activity of the transglutaminase substrate (TG: NQEQVSPL) (SEQ ID NO:10) of the engineered protein TG-TNC III1-5 was confirmed. FIG. 12 depicts results. Methods: A) The TG activity of TG-TNC III1-5 was tested by reaction with a fluorescent TAMRA molecule, containing lysines, with and without the presence of factor XIIIa, the TAMRA molecule, or TG-TNC III1-5. […] B) The TG activity of TG-TNC III1-5 was tested by reaction with fibrinogen, with and without the presence of factor XIIIa, fibrinogen, or TG-TNC III1-5. Fibrinogen or no protein was coated on an ELISA plate (1 hr, 37° C.), blocked with 2% BSA (1 hr, RT), reacted with or without TG-TNC III1-5 or factor XIIIa C) The TG activity of TG-TNC III1-5 was tested by reaction with PEG-lysines. A robotic spotter was used to bind TG-TNC III1-5 inside 450 μm spots (Gobaa, Hoehnel, et al., 2011), and an immuno-fluorescent stain was used to visualize the location and distribution of TG-TNC III1-5 onto the PEG. D) TG-TNC III1-5 and TG-FN III9*-10,TNC III1-5 (5 μM) were incorporated into a 2% TG-PEG gel. After 2 washed with PBS, 98% and 96% respectively of the fragments was bound into gels, which were sequentially stained with HRP-conjugated anti-HIS, and developed with TMB to read an absorbance at 450 nm."}, "HGF": {"molecular_target": "HGF (Homo sapiens, UniProt P14210)", "sequence (P14210 32-728, species assumed)": "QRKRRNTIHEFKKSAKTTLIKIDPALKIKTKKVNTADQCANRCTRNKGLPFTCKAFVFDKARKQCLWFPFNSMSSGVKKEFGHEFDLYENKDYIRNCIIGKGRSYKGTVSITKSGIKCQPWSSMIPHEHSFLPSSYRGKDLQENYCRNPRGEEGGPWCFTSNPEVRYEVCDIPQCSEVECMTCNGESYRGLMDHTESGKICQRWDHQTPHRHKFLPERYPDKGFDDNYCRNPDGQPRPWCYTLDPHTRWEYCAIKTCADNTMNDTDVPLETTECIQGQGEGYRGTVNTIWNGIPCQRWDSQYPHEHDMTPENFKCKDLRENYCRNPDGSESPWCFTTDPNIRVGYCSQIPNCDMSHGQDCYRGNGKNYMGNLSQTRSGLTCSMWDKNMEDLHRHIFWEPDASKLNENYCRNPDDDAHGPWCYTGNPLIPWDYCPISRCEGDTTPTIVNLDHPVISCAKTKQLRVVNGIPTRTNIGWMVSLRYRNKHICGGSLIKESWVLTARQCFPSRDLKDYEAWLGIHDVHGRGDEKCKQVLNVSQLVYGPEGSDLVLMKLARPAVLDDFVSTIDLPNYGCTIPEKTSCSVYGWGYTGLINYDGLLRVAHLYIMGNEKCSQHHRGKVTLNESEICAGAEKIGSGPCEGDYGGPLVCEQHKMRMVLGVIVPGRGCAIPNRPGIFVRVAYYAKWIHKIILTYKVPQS", "assay": "ELISA binding to coated HGF", "settings": "50 nM cytokine coated", "procedure": "as §1"}, "PlGF-3": {"molecular_target": "T3, PlGF-3 (Homo sapiens, UniProt P49763)", "T3 sequence (P49763 19-221)": "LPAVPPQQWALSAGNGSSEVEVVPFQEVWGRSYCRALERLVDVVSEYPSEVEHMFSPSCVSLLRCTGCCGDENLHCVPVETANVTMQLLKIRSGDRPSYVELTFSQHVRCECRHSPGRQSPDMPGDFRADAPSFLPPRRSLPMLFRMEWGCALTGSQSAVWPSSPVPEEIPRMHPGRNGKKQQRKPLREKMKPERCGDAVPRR", "assay": "ELISA binding to coated PlGF-3", "settings": "50 nM cytokine coated", "procedure": "as §1\n(§2) ELISA plates were coated with cytokines or BSA and further incubated with Fg β15-66 to analyze binding of […] to a wide variety of cytokines. […] Results are depicted in FIG. 4. Method: The methods were analogous to those used in Example 3."}, "FGF-5": {"molecular_target": "T4, FGF-5 (Homo sapiens, UniProt P12034)", "T4 sequence (P12034 21-268)": "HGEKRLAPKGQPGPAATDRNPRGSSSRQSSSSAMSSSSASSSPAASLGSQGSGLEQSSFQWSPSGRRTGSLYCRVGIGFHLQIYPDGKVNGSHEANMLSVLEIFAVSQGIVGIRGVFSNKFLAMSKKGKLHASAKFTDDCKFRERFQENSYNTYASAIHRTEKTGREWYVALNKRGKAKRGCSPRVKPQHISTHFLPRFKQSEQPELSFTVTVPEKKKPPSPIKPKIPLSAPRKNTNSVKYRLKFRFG", "assay": "ELISA binding to coated FGF-5", "settings": "50 nM cytokine coated", "procedure": "as §1, §2"}}, "data": [{"molecule": "B1", "values": [{"measurement": "binding to FGF-17 (ELISA, signal above BSA background)", "setting": "FGF-17", "result": "positive binding"}, {"measurement": "activity of the transglutaminase substrate (TG: NQEQVSPL)", "setting": "factor XIIIa", "result": "confirmed"}, {"measurement": "binding to HGF (ELISA, signal above BSA background)", "setting": "HGF", "result": "positive binding"}]}, {"molecule": "B2", "values": [{"measurement": "binding to PlGF-3 (ELISA, signal above BSA background)", "setting": "PlGF-3", "result": "positive binding"}, {"measurement": "binding to FGF-5 (ELISA, signal above BSA background)", "setting": "FGF-5", "result": "positive binding"}]}]}
